Measured values as given in patent US20200317768A1 (published 2020).

T1: cynomolgus monkey FcγRIIa1 extracellular domain, His-tagged (cynomolgus monkey)
T1 construct: also called cyno FcγRIIa1; cynoFcgRIIa1; not shown: C-terminal His-tag
T1 chain: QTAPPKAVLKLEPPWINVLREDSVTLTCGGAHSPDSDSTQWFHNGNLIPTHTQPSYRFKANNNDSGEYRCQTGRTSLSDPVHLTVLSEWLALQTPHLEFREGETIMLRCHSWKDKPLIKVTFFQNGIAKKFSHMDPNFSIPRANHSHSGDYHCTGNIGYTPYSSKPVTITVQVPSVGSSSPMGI

T2: human FcγRIIaR extracellular domain, His-tagged (human, UniProt P12318 34-217)
T2 construct: also called human FcγRIIa (type R); FcgRIIaR; not shown: C-terminal His-tag
T2 chain: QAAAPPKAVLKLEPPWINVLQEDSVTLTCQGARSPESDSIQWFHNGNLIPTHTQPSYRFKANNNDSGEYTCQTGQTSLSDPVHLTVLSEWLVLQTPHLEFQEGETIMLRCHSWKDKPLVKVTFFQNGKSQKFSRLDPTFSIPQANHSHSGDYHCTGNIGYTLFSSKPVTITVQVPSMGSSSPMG

T3: cynomolgus monkey FcγRIIa3 extracellular domain, His-tagged (cynomolgus monkey)
T3 construct: also called cyno FcγRIIa3; cynoFcgRIIa3; not shown: C-terminal His-tag
T3 chain: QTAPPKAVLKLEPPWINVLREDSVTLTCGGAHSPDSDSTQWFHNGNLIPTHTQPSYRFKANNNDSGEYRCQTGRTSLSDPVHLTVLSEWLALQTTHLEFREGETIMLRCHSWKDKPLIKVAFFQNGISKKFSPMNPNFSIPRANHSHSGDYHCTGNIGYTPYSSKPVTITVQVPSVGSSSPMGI

T4: human FcγRIIaH extracellular domain, His-tagged (human, UniProt P12318 34-217)
T4 construct: also called human FcγRIIa (type H); FcgRIIaH; not shown: C-terminal His-tag
T4 sequence: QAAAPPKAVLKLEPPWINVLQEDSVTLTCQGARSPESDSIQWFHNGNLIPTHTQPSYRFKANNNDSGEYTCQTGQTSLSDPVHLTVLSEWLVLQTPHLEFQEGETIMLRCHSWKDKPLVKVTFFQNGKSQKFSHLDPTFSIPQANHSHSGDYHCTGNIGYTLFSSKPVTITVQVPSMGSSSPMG

T5: cynomolgus monkey FcγRIIa2 extracellular domain, His-tagged (cynomolgus monkey)
T5 construct: also called cyno FcγRIIa2; cynoFcgRIIa2; not shown: C-terminal His-tag
T5 chain: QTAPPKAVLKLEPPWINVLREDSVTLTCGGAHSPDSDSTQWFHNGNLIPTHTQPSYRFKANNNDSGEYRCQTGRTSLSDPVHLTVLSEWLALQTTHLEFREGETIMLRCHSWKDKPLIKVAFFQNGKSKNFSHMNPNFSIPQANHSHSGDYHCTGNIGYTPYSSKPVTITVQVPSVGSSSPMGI

T6: cynomolgus monkey FcγRIIIaS extracellular domain, His-tagged (cynomolgus monkey, UniProt Q8SPW2 21-206 at identity 1.00))
T6 construct: also called cyno FcγRIIIaS; cynoFcγRIIIaS; not shown: C-terminal His-tag
T6 chain: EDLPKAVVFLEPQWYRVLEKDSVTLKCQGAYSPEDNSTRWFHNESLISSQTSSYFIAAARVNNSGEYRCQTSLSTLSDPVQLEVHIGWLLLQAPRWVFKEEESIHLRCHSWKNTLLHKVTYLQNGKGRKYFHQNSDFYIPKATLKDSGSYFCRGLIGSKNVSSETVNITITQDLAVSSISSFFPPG

T7: cynomolgus monkey FcγRIIb extracellular domain, His-tagged (cynomolgus monkey)
T7 construct: also called cyno FcγRIIb; cynoFcγRIIb; not shown: C-terminal His-tag
T7 chain: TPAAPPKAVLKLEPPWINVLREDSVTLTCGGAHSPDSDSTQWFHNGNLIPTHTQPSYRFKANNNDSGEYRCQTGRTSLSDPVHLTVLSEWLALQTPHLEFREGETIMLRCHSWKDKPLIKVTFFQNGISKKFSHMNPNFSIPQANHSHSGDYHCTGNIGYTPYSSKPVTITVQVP


How the values were obtained:
[1] = biological target: T1, cynomolgus monkey FcγRIIa1 …; assay: SPR (BIACORE); KD of SG1 divided by KD of variant
[2] = biological target: T8, human FcγRIIIaV extracellular domain, His-tagged (human, UniProt P08637 17-208); assay: SPR (BIACORE); KD of SG1 divided by KD of variant
T8 construct: also called FcgRIIIaV; not shown: C-terminal His-tag
T8 sequence (P08637 17-208 F176V): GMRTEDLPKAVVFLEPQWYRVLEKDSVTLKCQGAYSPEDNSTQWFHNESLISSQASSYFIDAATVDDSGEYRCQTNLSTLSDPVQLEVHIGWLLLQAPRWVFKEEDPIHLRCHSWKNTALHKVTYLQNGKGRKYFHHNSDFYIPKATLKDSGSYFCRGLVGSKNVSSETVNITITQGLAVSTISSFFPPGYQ

[3] = biological target: T2, human FcγRIIaR extracellular domain, …; assay: SPR (BIACORE), captured antibody, FcgR as analyte
Method: (§1) The kinetic analysis of interactions between these antibodies and FcγR was carried out using BIACORE® T200 or BIACORE® 4000 (GE Healthcare). HBS-EP+ (GE Healthcare) was used as the running buffer, and the measurement temperature was set to 25° C. A chip produced by immobilizing Protein A. Protein A/G or mouse anti-human IgG kappa light chain (BD Biosciences) onto a Series S Sensor Chip CM4 or CM5 (GE Healthcare) by the amine-coupling method was used. […] After the measurement, the antibody captured on the chip was washed off by allowing reaction with 10 mM glycine-HCl, pH1.5 and 25 mM NaOH so that the chip was regenerated and used repeatedly. The sensorgrams obtained as measurement results were analyzed by the 1:1 Langmuir binding model using the BIACORE® Evaluation Software to calculate the binding rate constant ka (L/mol/s) and dissociation rate constant kd (l/s), and the dissociation constant KD (mol/L) was calculated from these values. […] Regarding such interactions, KD values were calculated using the following 1:1 binding model described in BIACORE® T100 Software Handbook BR1006-48 Edition AE.

[4] = biological target: T3, cynomolgus monkey FcγRIIa3 …; assay: SPR (BIACORE), captured antibody, FcgR as analyte
Method: as §1

[5] = biological target: T1, cynomolgus monkey FcγRIIa1 …; assay: SPR (BIACORE), captured antibody, FcgR as analyte
Method: as §1

[6] = biological target: T4, human FcγRIIaH extracellular domain, …; assay: SPR (BIACORE), captured antibody, FcgR as analyte
Method: as §1

[7] = biological target: T5, cynomolgus monkey FcγRIIa2 …; assay: SPR (BIACORE), captured antibody, FcgR as analyte
Method: as §1

[8] = biological target: T8, human FcγRIIIaV extracellular domain, …; assay: SPR (BIACORE), captured antibody, FcgR as analyte
Method: as §1

[9] = biological target: T6, cynomolgus monkey FcγRIIIaS …; assay: SPR (BIACORE), captured antibody, FcgR as analyte
Method: as §1

[10] = biological target: T7, cynomolgus monkey FcγRIIb extracellular …; assay: SPR (BIACORE), captured antibody, FcgR as analyte
Method: as §1

KD fold (SG1 = 1) [1]	KD fold (SG1 = 1) [2]	Kd [3]	Kd [4]	Kd [5]	Kd [6]	Kd [7]	Kd [8]	Kd [9]	Kd [10]	Binder
1 fold	1 fold	1100 nM	17000 nM	3200 nM	690 nM	5100 nM	810 nM	360 nM	1800 nM	MS_M103205H795-SG1/M103202L889-SK1 (antibody, human IgG1, kappa, Parent antibody with heavy chain constant region SG1; also called MS1032LO06-SG1; copies: 2 + 2) heavy: not shown light: DIVMTQSPATLSLSPGERATLSCTSSQSVYHANWLSWFQQKPGQPPKLLIYWASTLAYGVPSRFSGSGSGTDFTLTISSLQPEDAATYYCAGGYGGGRYAFGQGTKVEIKRTVAAPSVFIFPPSDEQLKSGTASVVCLLNNFYPREAKVQWKVDNALQSGNSQESVTEQDSKDSTYSLSSTLTLSKADYEKHKVYACEVTHQGLSSPVTKSFNRGEC
0.7 fold	0.2 fold	420 nM	6800 nM	4400 nM	460 nM	4200 nM	4700 nM	2100 nM	1100 nM	M103205H795-MY442/M103202L889-SK1 (antibody, human IgG1, kappa, copies: 2 + 2) heavy: QVTLKESGPVLVKPTETLTLTCTVSGIDLSHDDISWVRQAPGKGLEWVGIISYAGSTYYASWAKGRLTISKDTSKNQVVLTMTNMDPVDTATYYCARGVPAYSHGGDLWGQGTLVTVSSASTKGPSVFPLAPSSKSTSGGTAALGCLVKDYFPEPVTVSWNSGALTSGVHTFPAVLQSSGLYSLSSVVTVPSSSLGTQTYICNVNHKPSNTKVDKKVEPKSCDKTHTCPPCPADELLTGPSVFLFPPKPKDTLMISRTPEVTCVVVDVSDEDPEVKFNWYVDGVEVHNAKTKPREEQYNSTYRVVSVLTVLHQDWLNGKEYKCKVSNKALPKPIEKTISKAKGQPREPQVYTLPPSREEMTKNQVSLTCLVKGFYPSDIAVEWESNGQPENNYKTTPPVLDSDGSFFLYSKLTVDKSRWQQGNVFSCSVMHEALHNHYTQKSLSLSP light: DIVMTQSPATLSLSPGERATLSCTSSQSVYHANWLSWFQQKPGQPPKLLIYWASTLAYGVPSRFSGSGSGTDFTLTISSLQPEDAATYYCAGGYGGGRYAFGQGTKVEIKRTVAAPSVFIFPPSDEQLKSGTASVVCLLNNFYPREAKVQWKVDNALQSGNSQESVTEQDSKDSTYSLSSTLTLSKADYEKHKVYACEVTHQGLSSPVTKSFNRGEC
0.8 fold	0.1 fold	650 nM	8000 nM	3800 nM	360 nM	3300 nM	8100 nM	2600 nM	880 nM	M103205H795-MY441/M103202L889-SK1 (antibody, human IgG1, kappa, copies: 2 + 2) heavy: QVTLKESGPVLVKPTETLTLTCTVSGIDLSHDDISWVRQAPGKGLEWVGIISYAGSTYYASWAKGRLTISKDTSKNQVVLTMTNMDPVDTATYYCARGVPAYSHGGDLWGQGTLVTVSSASTKGPSVFPLAPSSKSTSGGTAALGCLVKDYFPEPVTVSWNSGALTSGVHTFPAVLQSSGLYSLSSVVTVPSSSLGTQTYICNVNHKPSNTKVDKKVEPKSCDKTHTCPPCPAAELLTGPSVFLFPPKPKDTLMISRTPEVTCVVVDVSDEDPEVKFNWYVDGVEVHNAKTKPREEQYNSTYRVVSVLTVLHQDWLNGKEYKCKVSNKALPKPIEKTISKAKGQPREPQVYTLPPSREEMTKNQVSLTCLVKGFYPSDIAVEWESNGQPENNYKTTPPVLDSDGSFFLYSKLTVDKSRWQQGNVFSCSVMHEALHNHYTQKSLSLSP light: DIVMTQSPATLSLSPGERATLSCTSSQSVYHANWLSWFQQKPGQPPKLLIYWASTLAYGVPSRFSGSGSGTDFTLTISSLQPEDAATYYCAGGYGGGRYAFGQGTKVEIKRTVAAPSVFIFPPSDEQLKSGTASVVCLLNNFYPREAKVQWKVDNALQSGNSQESVTEQDSKDSTYSLSSTLTLSKADYEKHKVYACEVTHQGLSSPVTKSFNRGEC
1.5 fold	0.2 fold	440 nM	4800 nM	2200 nM	210 nM	1900 nM	54000 nM	2000 nM	590 nM	M103205H795-MY265/M103202L889-SK1 (antibody, human IgG1, kappa, also called MS103205H795-MY265; copies: 2 + 2) heavy: QVTLKESGPVLVKPTETLTLTCTVSGIDLSHDDISWVRQAPGKGLEWVGIISYAGSTYYASWAKGRLTISKDTSKNQVVLTMTNMDPVDTATYYCARGVPAYSHGGDLWGQGTLVTVSSASTKGPSVFPLAPSSKSTSGGTAALGCLVKDYFPEPVTVSWNSGALTSGVHTFPAVLQSSGLYSLSSVVTVPSSSLGTQTYICNVNHKPSNTKVDKKVEPKSCDKTHTCPPCPAPELLTGPSVFLFPPKPKDTLMISRTPEVTCVVVDVSDEDPEVKFNWYVDGVEVHNAKTKPREEQYNSTYRVVSVLTVLHQDWLNGKEYKCKVSNKALPKPIEKTISKAKGQPREPQVYTLPPSREEMTKNQVSLTCLVKGFYPSDIAVEWESNGQPENNYKTTPPVLDSDGSFFLYSKLTVDKSRWQQGNVFSCSVMHEALHNHYTQKSLSLSP light: DIVMTQSPATLSLSPGERATLSCTSSQSVYHANWLSWFQQKPGQPPKLLIYWASTLAYGVPSRFSGSGSGTDFTLTISSLQPEDAATYYCAGGYGGGRYAFGQGTKVEIKRTVAAPSVFIFPPSDEQLKSGTASVVCLLNNFYPREAKVQWKVDNALQSGNSQESVTEQDSKDSTYSLSSTLTLSKADYEKHKVYACEVTHQGLSSPVTKSFNRGEC
